These results are taken from patent publication US20190284287A1 (TUSK THERAPEUTICS, published 2019).

One may read the EC50 (read off the curve) as the concentration needed to bring the measured effect to its halfway point. A low value points to higher potency in that assay.

Test [1] addresses T1, human CD25 expressed on cells (human, UniProt P01589 22-272).
T1 construct: Endogenous CD25 on human cell lines and primary cells
T1 sequence: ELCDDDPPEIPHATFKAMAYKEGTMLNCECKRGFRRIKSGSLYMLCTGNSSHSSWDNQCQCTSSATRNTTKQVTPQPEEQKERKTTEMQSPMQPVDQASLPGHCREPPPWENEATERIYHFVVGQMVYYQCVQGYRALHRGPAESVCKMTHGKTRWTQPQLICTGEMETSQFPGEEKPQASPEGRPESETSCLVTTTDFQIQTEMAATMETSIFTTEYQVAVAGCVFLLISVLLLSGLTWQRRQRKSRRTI
Briefly: flow cytometry on CD3/CD28 bead activated human Pan T cells, gated on CD4+ T cells. Background: In flow cytometry, cells or beads pass a laser one at a time.
Procedure: (§1) Binding to CD25 expressing activated human and Cynomolgus monkey PMBC was examined by staining test articles (anti-CD25 primary antibodies) with 20 μg/ml antibodies followed by semi-log dilution series (7-point) for 30 minutes on ice. This was followed by staining with a secondary antibody (rabbit anti-human Fcg F(ab′)2—(Jackson ImmunoResearch)) concentration of 5 μg/ml for 30 minutes on ice. All samples were stained in triplicates. To minimize cross-linking induced cell death mediated by binding of the secondary antibody, cell lines were examined in staining cohorts of 4 test articles at a time. Live lymphocytes were gated using FSC vs SSC parameters by flow cytometry during sample acquisition. Mean fluorescence intensity (MFI) of gated CD4⁺ and CD8⁺ T cell subsets were plotted on an XY chart, graphing MFI against the log of the concentration, and the data fit to a non-linear regression curve from which the EC50 was calculated.

For test [2], the target named is T1, human CD25 expressed on cells. Briefly: flow cytometry on CD3/CD28 bead activated human Pan T cells, gated on CD8+ T cells.
Procedure: as §1
The target is the same in test [3]. Briefly: flow cytometry on Karpas 299 cells, Alexa Fluor 647 anti-human IgG Fc secondary [B); D00021 Figure 21 cont. C), D), E].
Procedure: Binding to CD25 expressing Karpas299 cells was examined by staining test articles (anti-CD25 primary antibodies) with 20 μg/ml antibodies followed by semi-log dilution series (7-point) for 30 minutes on ice. […] All samples were stained in duplicates. Live cells were gated using FSC vs SSC parameters by flow cytometry during sample acquisition. Mean fluorescence intensity (MFI) of stained cells were plotted on an XY chart, graphing MFI against the log of the concentration, and the data fit to a non-linear regression curve from which the EC50 is calculated.
Test [4] addresses T2, recombinant human CD25 his tagged (human, UniProt P01589 22-240).
T2 construct: also called rhCD25-his tag; not shown: His tag
T2 sequence: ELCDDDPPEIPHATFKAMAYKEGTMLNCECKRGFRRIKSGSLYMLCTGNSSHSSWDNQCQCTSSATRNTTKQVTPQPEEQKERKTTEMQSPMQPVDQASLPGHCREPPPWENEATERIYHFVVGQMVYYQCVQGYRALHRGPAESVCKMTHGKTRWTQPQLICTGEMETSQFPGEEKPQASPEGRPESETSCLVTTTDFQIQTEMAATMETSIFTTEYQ
Briefly: SPR, Biacore 2000; antibody captured by anti-human antibody, rhCD25-His as analyte, two state fit. In general terms: In SPR one partner is held on a chip, and binding of the other changes the refractive index at the surface.

Test [5] has as its target T2, recombinant human CD25 his tagged. Briefly: BLI, ForteBio Octet Red96; IgG on AHC sensors, rhCD25-His in solution, 1:1 fit. In general terms: BLI is a label-free optical method that tracks binding on a fibre tip over time.
Procedure: Sensors were equilibrated off-line in assay buffer for 10 min and then monitored on-line for 60 seconds for baseline establishment. […] Then, 1:3 serial dilutions (from 1 uM to 4 nM) of recombinant human CD25 HIS tagged was associated to the loaded IgG for 10 min. Afterwards they were transferred to assay buffer for 6.6 min for off-rate measurement. Kinetics data were fit using a global 1:1 binding model in the ForteBio Data Analysis Software 9.0 with reference subtraction.
For test [6], the target named is T3, recombinant human CD25 extracellular protein sequence (rhCD25) (human, UniProt P01589 22-240).
T3 construct: also called human CD25 antigen
T3 sequence: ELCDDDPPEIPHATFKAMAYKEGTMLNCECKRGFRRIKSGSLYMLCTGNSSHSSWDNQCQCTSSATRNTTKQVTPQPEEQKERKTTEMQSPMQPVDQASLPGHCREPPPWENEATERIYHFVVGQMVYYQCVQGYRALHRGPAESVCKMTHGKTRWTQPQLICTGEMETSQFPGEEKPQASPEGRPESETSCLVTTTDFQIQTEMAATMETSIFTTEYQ
Briefly: method not given; lower end of the stated range.

For test [7], the target named is T4, inhouse produced monomeric human CD25 antigen (P1AA5872) (human, UniProt P01589 22-240, limits assumed).
T4 construct: also called Inhouse (0% dimer)
T4 sequence: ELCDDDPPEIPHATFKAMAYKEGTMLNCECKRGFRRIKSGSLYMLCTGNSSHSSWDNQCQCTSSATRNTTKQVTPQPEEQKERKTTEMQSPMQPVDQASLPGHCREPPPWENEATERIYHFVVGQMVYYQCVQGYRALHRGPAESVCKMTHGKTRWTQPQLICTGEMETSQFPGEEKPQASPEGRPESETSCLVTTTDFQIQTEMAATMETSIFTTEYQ
Briefly: SPR, Biacore T200; antibody captured by anti-human Fab, monomeric CD25 as analyte, 1:1 Langmuir fit; column 'Binding strength'.
Procedure: (§2) Binding of CD25 antibodies to human CD25 antigen was investigated by surface plasmon resonance using a BIACORE T200 instrument (GE Healthcare).
(§3) The flow cell was set to 25° C. and the sample compartment to 12° C. The CD25 antibody was captured by injecting a 3 μg/ml solution for 60 sec at a flow rate of 10 μl/min. Association of CD25 antigen was measured by injection of human CD25 solutions for 180 sec at a flow rate of 30 μl/min starting with a concentration of 1000 nM down to 1 nM in 1:10 dilution steps. The dissociation phase was triggered by switching from sample solution injection to running buffer and monitored for up to 600 seconds. The surface was regenerated by washing with two consecutive 1-minute injections of 10mM glycine pH 2.1 (provided by the kit) at a flow rate of 10 μl/min. Bulk refractive index differences were corrected by subtracting the response obtained from an anti-human Fab reference surface; blank injections are also subtracted (=double referencing).
(§4) For calculation of KD and kinetic parameters Biacore provided fitting models were used to obtain optimal curve fitting results. The 1:1 Langmuir fit was used for P1AA5872 and the Two State Kinetic fitting for CD25 from Sino Biologicals and R&D Systems.

Test [8] has as its target T5, human CD25 antigen, R&D Systems cat no. 223-2A/CF (~10% dimer) (human, UniProt P01589 22-240, limits assumed).
T5 construct: also called R&D Systems (~10% dimer); huCD25 (IL2R alpha)
T5 sequence: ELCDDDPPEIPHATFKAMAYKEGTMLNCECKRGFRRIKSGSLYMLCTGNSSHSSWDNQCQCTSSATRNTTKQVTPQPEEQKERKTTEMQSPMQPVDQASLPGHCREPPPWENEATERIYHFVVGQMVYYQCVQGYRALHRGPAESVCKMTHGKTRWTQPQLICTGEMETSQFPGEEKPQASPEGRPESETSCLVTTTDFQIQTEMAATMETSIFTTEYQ
Briefly: SPR, Biacore T200; antibody captured by anti-human Fab, CD25 as analyte, Two State Reaction fit; column 'Binding strength' (affinity and/or avidity).
Procedure: as §2, §3, §4

In test [9] the target is T6, human CD25 antigen, Sino Biologicals cat no. 10165-H08H (~20% dimer) (human, UniProt P01589 22-213).
T6 construct: Bought antigen; also called Sino biological (~20% dimer)
T6 sequence: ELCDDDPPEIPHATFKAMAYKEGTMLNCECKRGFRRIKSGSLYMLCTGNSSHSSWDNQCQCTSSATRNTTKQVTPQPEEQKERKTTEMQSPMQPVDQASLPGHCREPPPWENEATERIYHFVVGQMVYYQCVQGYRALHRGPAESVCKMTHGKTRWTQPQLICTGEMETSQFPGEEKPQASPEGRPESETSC
Briefly: SPR, Biacore T200; antibody captured by anti-human Fab, CD25 as analyte, Two State Reaction fit; column 'Binding strength' (affinity and/or avidity); Sino Biological CD25 (~20% dimer), Two State Reaction fit; affinity and/or avidity.
Source text: as §2, §4

Test [10] has as its target T1, human CD25 expressed on cells. Briefly: cell-based or functional assay.
The target is the same in test [11]. Briefly: flow cytometry on human in vitro differentiated Treg cells, Alexa Fluor 647 anti-human IgG secondary.
Procedure: Binding to CD25 expressing in vitro differentiated Tregs was examined by staining test articles (anti-CD25 primary antibodies) with 30 μg/ml antibodies followed by semi-log dilution series (7-point) for 30 minutes on ice. […] All samples were stained in duplicates. Live cells were gated using FSC vs SSC parameters by flow cytometry during sample acquisition. Mean fluorescence intensity (MFI) of stained cells were plotted on an XY chart, graphing MFI against the log of the concentration, and the data fit to a non-linear regression curve from which the EC50 is calculated.
In test [12] the target is T3, recombinant human CD25 extracellular …. Briefly: method not given; upper end of the stated range.
The target of test [13] is T2, recombinant human CD25 his tagged. Briefly: SPR, Biacore 2000: IgG1 captured on an anti-human antibody CM-5 chip, rhCD25-his tag as analyte.
Test [14] has the same target. The description is as above. This is another data set of the same source.
Test [15] has the same target. Described as above. This is another data set of the same source.
Test [16] has the same target. The description is as above. This is another data set of the same source.
Procedure: (§5) Anti-human antibody was initially immobilised across all flow cells in analysis buffer (pH 7.4, 10 mM HEPES, 150 mM NaCl, 3 mM EDTA, 0.05% Tween 20) to an RU of between 12,000-14,000 over 10 minutes. […] Dissociation was performed in analysis buffer over 10 minutes. Regeneration steps between sample concentrations were performed in 10 mM Glycin pH1.7 for 10 minutes. A flow rate of 25 μl/min was maintained throughout the process. Kinetics data were fit using a global two state reaction conformational change analysis software provided by Biacore with reference subtraction.
For test [17] the target is unchanged. The test is described as above. The source holds these as a separate data set.
Procedure: as §5

B1: aCD25-a-686 (antibody, V domains shown)
VH: QVQLVQSGAEVKKPGSSVKVSCKASGGTFSSLAISWVRQAPGQGLEWMGGIIPIFGTANYAQKFQGRVTITADESTSTAYMELSSLRSEDTAVYYCARGGSVSGTLVDFDIWGQGTMVTVSS
VL: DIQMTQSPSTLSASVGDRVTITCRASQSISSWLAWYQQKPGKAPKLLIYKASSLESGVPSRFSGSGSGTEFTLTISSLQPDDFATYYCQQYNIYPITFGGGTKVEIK
notes: not shown: human IgG1 heavy chain constant region (P01857); human kappa light chain constant region (P01834)
For the molecule B1, the “EC50 (read off the curve)” value is approximately 0.4 µg/mL in test [1], approximately 0.5 µg/mL in [2], approximately 0.5 µg/mL in [3] and approximately 1 µg/mL in test [11]. Besides, the Kd was 3.2 nM in test [4]; 2.33 nM in test [5]; not below 0.1 nM in [6]; 244 nM in [7]; 5.8 nM in test [8]; 2.5 nM in [9]. In [12], the Kd is not above 10 nM. Further, the “ADCC of iTregs by IL-2 activated NK cells: EC50” value in test [10] came out at 0.21 uG/mL.

B2: afucosylated aCD25-a-686 (antibody, human IgG1, V domains shown)
VH: QVQLVQSGAEVKKPGSSVKVSCKASGGTFSSLAISWVRQAPGQGLEWMGGIIPIFGTANYAQKFQGRVTITADESTSTAYMELSSLRSEDTAVYYCARGGSVSGTLVDFDIWGQGTMVTVSS
VL: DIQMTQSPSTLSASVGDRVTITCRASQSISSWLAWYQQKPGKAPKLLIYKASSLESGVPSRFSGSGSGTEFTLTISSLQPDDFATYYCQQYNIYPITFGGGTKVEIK
modifications: Fc glycan afucosylated (>99% of a-fucosylation by LC/MS)
For B2, the “ADCC of iTregs by IL-2 activated NK cells: EC50” value in [10] is 0.01 uG/mL.

B3: aCD25-a-686-m2 (antibody, IgG1, V domains shown)
VH: QVQLVQSGAEVKKPGSSVKVSCKASGGTFSSLAITWVRQAPGQGLEWMGGIIPIFGDASYAQKFQGRVTITADESTSTAYMELSSLRSEDTAVYYCARGGSVSGTLVDFDIWGQGTMVTVSS
VL: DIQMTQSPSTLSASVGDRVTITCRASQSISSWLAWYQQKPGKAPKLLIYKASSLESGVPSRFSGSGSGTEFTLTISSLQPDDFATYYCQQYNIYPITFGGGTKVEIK
B3: the Kd in [13] came out at 1.9 nM.

B4: aCD25-a-686-m4 (antibody, IgG1, V domains shown)
VH: QVQLVQSGAEVKKPGSSVKVSCKASGGTFSALAISWVRQAPGQGLEWMGGIIPLFGRANYAQKFQGRVTITADESTSTAYMELSSLRSEDTAVYYCARGGSVSGTLVDFDIWGQGTMVTVSS
VL: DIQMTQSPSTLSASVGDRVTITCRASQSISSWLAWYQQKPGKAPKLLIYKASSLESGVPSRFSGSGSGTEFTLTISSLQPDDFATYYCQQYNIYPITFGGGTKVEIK
As to B4, the Kd in [14] amounted to 0.76 nM.

B5: aCD25-a-686-m1 (antibody, IgG1, V domains shown)
VH: QVQLVQSGAEVKKPGSSVKVSCKASGGTFSSLAISWVRQAPGQGLEWMGAIIPVFGTASYAQKFQGRVTITADESTSTAYMELSSLRSEDTAVYYCARGGSVSGTLVDFDIWGQGTMVTVSS
VL: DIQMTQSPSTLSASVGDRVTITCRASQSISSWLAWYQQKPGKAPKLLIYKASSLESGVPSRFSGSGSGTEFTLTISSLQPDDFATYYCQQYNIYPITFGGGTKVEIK
notes: also called aCD25-a-686-ml; aCD25-a-686ml
On to B5, for which, in test [15], the Kd was 0.97 nM.

B6: aCD25-a-686-m3 (antibody, IgG1, V domains shown)
VH: QVQLVQSGAEVKKPGSSVKVSCKASGGTFSSLAISWVRQAPGQGLEWMGGIIPIFGDANYAQKLQGRVTMTTDTSTSTAYMELRSLRSDDTAVYYCARGGSVSGTLVDFDIWGQGTMVTVSS
VL: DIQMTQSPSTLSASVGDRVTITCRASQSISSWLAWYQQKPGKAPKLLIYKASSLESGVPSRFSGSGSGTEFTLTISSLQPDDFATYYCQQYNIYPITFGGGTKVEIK
As to B6, the Kd in [16] came out at 0.34 nM.

B7: aCD25-a-686-m5 (antibody, IgG1, V domains shown)
VH: QVQLVQSGAEVKKPGSSVKVSCKASGGTFSSLAIFWVRQAPGQGLEWMGGIIPVFGQANYAQKFQGRVTITVDESTSTAYMELSSLRSEDTAVYYCARGGSVSGTLVDFDIWGQGTMVTVSS
VL: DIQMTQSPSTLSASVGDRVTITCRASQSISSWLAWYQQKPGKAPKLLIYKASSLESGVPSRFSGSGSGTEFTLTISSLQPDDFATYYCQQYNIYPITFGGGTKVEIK
As for B7, in test [17], the Kd was 0.66 nM.
